Article PMC12501420, “Small DUF1127 proteins regulate bacterial phosphate metabolism through protein–protein interactions with the sensor kinase PhoR” (microLife, 2025)

Molecular target: T1, Strep-PhoR, sensor kinase PhoR from E. coli, purified (E. coli, UniProt P08400 1-431)
T1 construct: sensor kinase PhoR of Escherichia coli; one of 'both Strep-PhoR proteins' of the methods; also called E. coli PhoR; source: E. coli BL21, purified (membranes solubilised with Triton X-100, Strep-Tactin)
T1 sequence (looked up): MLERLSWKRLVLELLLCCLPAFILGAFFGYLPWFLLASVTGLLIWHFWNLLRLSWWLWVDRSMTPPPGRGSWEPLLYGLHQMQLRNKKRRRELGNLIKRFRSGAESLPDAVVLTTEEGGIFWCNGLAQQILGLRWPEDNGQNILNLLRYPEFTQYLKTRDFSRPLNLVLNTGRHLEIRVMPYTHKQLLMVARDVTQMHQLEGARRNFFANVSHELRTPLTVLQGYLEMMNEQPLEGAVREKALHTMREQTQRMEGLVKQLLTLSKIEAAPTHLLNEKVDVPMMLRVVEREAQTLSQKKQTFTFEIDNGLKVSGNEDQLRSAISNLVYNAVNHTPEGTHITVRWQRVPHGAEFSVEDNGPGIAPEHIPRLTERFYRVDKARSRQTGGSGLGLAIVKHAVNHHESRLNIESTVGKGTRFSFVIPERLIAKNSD
Experiment: far-Western, overlay or dot blot; Far-Western dot blot: Strep-tagged bait proteins spotted on a nitrocellulose membrane, incubated with His-SUMO-tagged DUF1127 protein, detected with anti-His antibody; EveryBlot blocking buffer, PBST washes (for E. coli PhoR and YjiS, Fig. 8B, it is not told who was spotted)
Details: both partners purified

B1: YjiS from E. coli, purified (natural protein, UniProt P39390 1-54, looked up)
chain: MEFHENRAKAPFIGLVQLWQAVRRWRRQMQTRRVLQQMSDERLKDIGLRREDVE
notes: YjiS, the sole DUF1127 protein of Escherichia coli, a 54-amino acid protein; also called E. coli YjiS
binding result: binds
